One assay has as its target HLA-A*29:02. The assay is described as follows: IEDB peptide-MHC binding, purified MHC/direct/fluorescence; filed as Kd, often an IC50 or EC50 that approximates it; ≥ and ≤ were set here for values at or beyond the usual limits of such assays.
The next assay deals with HLA-A*01:01. Described as above.
For another assay, the target named is HLA-B*46:01. The assay is described as follows: IEDB peptide-MHC binding, purified MHC/competitive/fluorescence; filed as Kd, often an IC50 or EC50 that approximates it; ≥ and ≤ were set here for values at or beyond the usual limits of such assays. The conditions noted are these: source organism: Orthohantavirus andesense.
For assay [1], the target named is HLA-A*02:01. The description is as above. As to conditions: source organism: Orthohantavirus andesense.
In another assay the target is HLA-B*45:06. The assay is described as above. The conditions noted are these: source organism: Orthohantavirus andesense.
The next assay addresses HLA-B*57:01. Described as above. As to conditions: source organism: Orthohantavirus andesense.
For another assay, the target named is HLA-B*15:17. The assay is described as above. The conditions noted are these: source organism: Orthohantavirus andesense.
A further assay concerns the target HLA-A*69:01. Described as above. As to conditions: source organism: Orthohantavirus andesense.
A further assay has as its target HLA-B*15:42. The description is as above. The conditions noted are these: source organism: Orthohantavirus andesense.
Another assay concerns the target HLA-B*51:01. The description is as above. As to conditions: source organism: Orthohantavirus andesense.
In the next assay the target is HLA-B*27:03. Described as above. As to conditions: source organism: Orthohantavirus andesense.
A further assay deals with HLA-B*83:01. The assay is described as above. The conditions noted are these: source organism: Orthohantavirus andesense.
Another assay addresses HLA-B*39:01. The description is as above. As to conditions: source organism: Orthohantavirus andesense.
For a further assay, the target named is HLA-B*15:01. The assay is described as above. As to conditions: source organism: Orthohantavirus andesense.
The target of another assay is HLA-A*26:01. Described as above. The conditions noted are these: source organism: Orthohantavirus andesense.
The next assay deals with HLA-B*18:01. Described as above. As to conditions: source organism: Orthohantavirus andesense.
Another assay has as its target HLA-A*02:12. The assay is described as follows: IEDB peptide-MHC binding, purified MHC/direct/fluorescence; filed as Kd, often an IC50 or EC50 that approximates it; ≥ and ≤ were set here for values at or beyond the usual limits of such assays.
The target of the next assay is HLA-A*02:11. Described as above.
The target of the next assay is HLA-B*40:01. The description is as above. As to conditions: source organism: Orthohantavirus andesense.
A further assay addresses HLA-A*68:02. The description is as above.
For the next assay, the target named is HLA-A*24:03. The description is as above.
Assay [2] deals with HLA-A*03:01. The description is as above.
The next assay addresses HLA-A*02:16. The description is as above.
In another assay the target is HLA-A*02:19. Described as above.
For another assay, the target named is HLA-A*02:03. The assay is described as above.
In the next assay the target is HLA-A*24:02. As to the kind of experiment: IEDB peptide-MHC binding, purified MHC/competitive/fluorescence; ≥ and ≤ were set here for values at or beyond the usual limits of such assays. The conditions noted are these: source organism: Zaire ebolavirus.
For assay [3], the target named is HLA-A*03:01. The description is as above.
For a further assay, the target named is HLA-A*11:01. The description is as above.
For assay [4], the target named is HLA-A*02:01. The assay is described as above.
For the next assay, the target named is HLA-B*35:01. As to the kind of experiment: IEDB peptide-MHC binding, purified MHC/competitive/fluorescence; filed as Kd, often an IC50 or EC50 that approximates it; ≥ and ≤ were set here for values at or beyond the usual limits of such assays. As to conditions: source organism: Orthohantavirus andesense.
The target in the next assay is HLA-B*07:02. The assay is described as follows: IEDB peptide-MHC binding, purified MHC/direct/fluorescence; filed as Kd, often an IC50 or EC50 that approximates it; ≥ and ≤ were set here for values at or beyond the usual limits of such assays. As to conditions: source organism: Oran virus.
[5] abbreviates: source organism: Mammarenavirus juninense.
Where [6] appears, read: source organism: Orthohantavirus andesense.
Setting [7] is: source organism: Zaire ebolavirus.
[8] abbreviates: source organism: Sudan ebolavirus.

In general, Kd refers to the constant that tells how readily two partners part at equilibrium. A higher Kd goes with weaker binding. For orientation: IC50 means the concentration needed to halve the response being measured. Low values mean greater potency in that assay, high ones weaker potency in that assay.

HTEFQTVSF: the Kd with HLA-A*29:02 (setting [5]) is no less than 20 µM; in the assay with HLA-A*01:01 (setting [5]), 2.29 µM.
LEEDIQHFL: the dissociation constant (Kd) in the assay with HLA-B*46:01 is no less than 20 µM; in the assay with HLA-A*02:01 [1], no less than 20 µM; with HLA-B*45:06 it was no less than 5 µM; with HLA-B*57:01, no less than 20 µM; in the assay with HLA-B*15:17, no less than 20 µM; in the assay with HLA-A*69:01, no less than 20 µM. Further, the Kd with HLA-B*15:42 is no less than 5 µM; with HLA-B*51:01, no less than 20 µM; in the assay with HLA-B*27:03, no less than 20 µM; in the assay with HLA-B*83:01 it was no less than 5 µM; with HLA-B*39:01, no less than 20 µM; with HLA-B*15:01, no less than 20 µM. Besides, the Kd was no less than 20 µM with HLA-A*26:01; no less than 20 µM in the assay with HLA-B*18:01; no less than 20 µM with HLA-A*29:02 (setting [6]); no less than 20 µM in the assay with HLA-A*02:12 (setting [6]); no less than 20 µM in the assay with HLA-A*02:11 (setting [6]); 0.0002 µM in the assay with HLA-B*40:01. Further, the Kd with HLA-A*68:02 (setting [6]), with HLA-A*24:03 (setting [6]), with HLA-A*03:01 [2] (setting [6]), with HLA-A*02:16 (setting [6]), with HLA-A*02:19 (setting [6]) and in the assay with HLA-A*02:03 (setting [6]) was no less than 20 µM in each case.
On to AFLILPQAK, for which the IC50 with HLA-A*24:02 worked out at 26.9 µM; in the assay with HLA-A*03:01 [3] (setting [7]), 20 µM; with HLA-A*11:01 (setting [7]) it was 14.1 µM.
As for RTNGASYAY, the Kd in the assay with HLA-A*29:02 (source organism: Mycobacterium tuberculosis str. Haarlem) is no more than 0.001 µM; in the assay with HLA-A*01:01 (source organism: Mycobacterium tuberculosis), 0.199 µM.
In the case of IQNVPGPHR, the IC50 is no less than 119 µM in the assay with HLA-A*02:01 [4] (setting [7]), 6.86 µM with HLA-A*24:02, 8.53 µM in the assay with HLA-A*03:01 [3] (setting [7]) and 0.889 µM with HLA-A*11:01 (setting [7]).
For ILGSLGLRK, the IC50 in the assay with HLA-A*02:01 [4] (setting [8]) is no less than 141 µM; with HLA-A*03:01 [3] (setting [8]) it was 0.872 µM; with HLA-A*11:01 (setting [8]), 0.219 µM.
In the case of KPKALSEAF, the Kd in the assay with HLA-B*46:01, in the assay with HLA-A*02:01 [1], with HLA-B*57:01, with HLA-B*15:17, with HLA-A*69:01 and with HLA-B*51:01 was no less than 20 µM throughout. For the same sequence, the Kd is no less than 20 µM with HLA-B*27:03; no less than 20 µM with HLA-B*39:01; no less than 20 µM with HLA-B*15:01; 0.0223 µM with HLA-B*35:01; no less than 20 µM with HLA-A*26:01; no less than 20 µM with HLA-B*18:01. Also, the Kd with HLA-A*29:02 (source organism: Oran virus), with HLA-A*02:12 (source organism: Oran virus), in the assay with HLA-A*02:11 (source organism: Oran virus), in the assay with HLA-A*68:02 (source organism: Oran virus), in the assay with HLA-A*24:03 (source organism: Oran virus) and with HLA-A*03:01 [2] (source organism: Oran virus) was no less than 20 µM each time. Besides, the Kd with HLA-A*02:16 (source organism: Oran virus) is no less than 20 µM; with HLA-A*02:19 (source organism: Oran virus) it was no less than 20 µM; with HLA-B*07:02 it was 0.0765 µM; with HLA-A*02:03 (source organism: Oran virus), no less than 20 µM.

(Values after the Immune Epitope Database (IEDB).)
